From US12551542B2, “Polymeric nanoparticles that target liver sinusoidal endothelial cells to induce antigen-specific immune tolerance” (The Regents of the University of California, priority 2019, dated 2026)
No end group written: not given here.

How the values were obtained:
LSECs = experiment: NP-associated FITC-OVA uptake, flow cytometry; format: cell-based, mouse
Protocol: Following OVA-FITC labeling, the antigen was encapsulated in NPs as described in Example 1 Materials and Methods. LSECs and KUP5 cells were incubated with FITC-OVA or NP^FITC-OVA for the indicated time periods. After being washed in PBS, the % FITC-OVA^+ cells and the cellular mean fluorescence intensity (MFI) were analyzed in a BD LSRII (IMED) analytic flow cytometer by Flowjo® software. Panels (A, B): Kinetics of NP-mediated antigen uptake in LSECs and KUP5 cells, respectively. Panels (C, D): Histograms depicting the % and MFI of antigen-positive LSECs. Data are expressed as the mean±SEM (n=6); *p<0.05; **p<0.01; ***[…] (one-way ANOVA followed by Tukey's test).
To quantitatively evaluate antigen uptake into cells, OVA was labeled with FITC as previously described. Following the incorporation of FITC-OVA into NPs, LSECs and KUP5 cells were incubated with FITC-OVA or the labeled particles for 24 h. Cells were collected, washed with PBS, and analyzed in a BD LSRII (IMED) analytic flow cytometer. Flowjo software (Ashland, OR) was used to quantify the percentage and mean fluorescence intensity of the FITC-OVA+-labeled cells.

mice = experiment: Biodistribution of DyLight680-OVA NPs after IV injection, ex vivo IVIS imaging; design: species or system mouse; conditions: 25 μg OVA in 500 μg NPs per animal, 24 h
From the text: Panel (B): Confocal microscopy to show the intrahepatic distribution of free or encapsulated labeled OVA. […] The red and green fluorescence colors represent DyLight680-labeled OVA and isolectin B4 stained LSECs, respectively. Scale bars correspond to 50 μm. Data are expressed as the mean±SEM (n=6); *p<0.05; **p<0.01; ***[…] (one-way ANOVA followed by Tukey's test).
FIG. 17A schematically illustrates two main strategies for inducing immune tolerance. Strategy 1 depicts a liver-targeting nanoparticle for allergen delivery to LSEC in the liver, where allergen processing and presentation to naïve T-cells induce antigen-specific Foxp3^+ Tregs, which are recruited to the site of allergic inflammation in the lung. […] FIG. 17B schematically illustrates the PLGA nanoparticle synthesis process, including carrier loading with cargo (allergen, epitopes, pharmaceutical agents), by a w/o/w double emulsion method combined with solvent removal. […] The red and green fluorescence colors represent Dylight680-labeled OVA and isolectin B4 stained LSECs, respectively. […]
The near-infrared fluorescent dye, DyLight680 (ex=692, em=712), was used to label OVA, which was subsequently encapsulated in the NPs. […] The data were analyzed using Living Image software (PerkinElmer, version 4.5) and were expressed as the fluorescence intensity in the region of interest. […]

[1] = target: stabilin-1 scavenger receptor on liver sinusoidal endothelial cells (LSECs) (mouse, UniProt Q8R4Y4 26-2571); experiment: cell-based or functional assay
Sequence of stabilin-1 scavenger receptor on liver sinusoidal endothelial cells (LSECs) (Q8R4Y4 26-2571): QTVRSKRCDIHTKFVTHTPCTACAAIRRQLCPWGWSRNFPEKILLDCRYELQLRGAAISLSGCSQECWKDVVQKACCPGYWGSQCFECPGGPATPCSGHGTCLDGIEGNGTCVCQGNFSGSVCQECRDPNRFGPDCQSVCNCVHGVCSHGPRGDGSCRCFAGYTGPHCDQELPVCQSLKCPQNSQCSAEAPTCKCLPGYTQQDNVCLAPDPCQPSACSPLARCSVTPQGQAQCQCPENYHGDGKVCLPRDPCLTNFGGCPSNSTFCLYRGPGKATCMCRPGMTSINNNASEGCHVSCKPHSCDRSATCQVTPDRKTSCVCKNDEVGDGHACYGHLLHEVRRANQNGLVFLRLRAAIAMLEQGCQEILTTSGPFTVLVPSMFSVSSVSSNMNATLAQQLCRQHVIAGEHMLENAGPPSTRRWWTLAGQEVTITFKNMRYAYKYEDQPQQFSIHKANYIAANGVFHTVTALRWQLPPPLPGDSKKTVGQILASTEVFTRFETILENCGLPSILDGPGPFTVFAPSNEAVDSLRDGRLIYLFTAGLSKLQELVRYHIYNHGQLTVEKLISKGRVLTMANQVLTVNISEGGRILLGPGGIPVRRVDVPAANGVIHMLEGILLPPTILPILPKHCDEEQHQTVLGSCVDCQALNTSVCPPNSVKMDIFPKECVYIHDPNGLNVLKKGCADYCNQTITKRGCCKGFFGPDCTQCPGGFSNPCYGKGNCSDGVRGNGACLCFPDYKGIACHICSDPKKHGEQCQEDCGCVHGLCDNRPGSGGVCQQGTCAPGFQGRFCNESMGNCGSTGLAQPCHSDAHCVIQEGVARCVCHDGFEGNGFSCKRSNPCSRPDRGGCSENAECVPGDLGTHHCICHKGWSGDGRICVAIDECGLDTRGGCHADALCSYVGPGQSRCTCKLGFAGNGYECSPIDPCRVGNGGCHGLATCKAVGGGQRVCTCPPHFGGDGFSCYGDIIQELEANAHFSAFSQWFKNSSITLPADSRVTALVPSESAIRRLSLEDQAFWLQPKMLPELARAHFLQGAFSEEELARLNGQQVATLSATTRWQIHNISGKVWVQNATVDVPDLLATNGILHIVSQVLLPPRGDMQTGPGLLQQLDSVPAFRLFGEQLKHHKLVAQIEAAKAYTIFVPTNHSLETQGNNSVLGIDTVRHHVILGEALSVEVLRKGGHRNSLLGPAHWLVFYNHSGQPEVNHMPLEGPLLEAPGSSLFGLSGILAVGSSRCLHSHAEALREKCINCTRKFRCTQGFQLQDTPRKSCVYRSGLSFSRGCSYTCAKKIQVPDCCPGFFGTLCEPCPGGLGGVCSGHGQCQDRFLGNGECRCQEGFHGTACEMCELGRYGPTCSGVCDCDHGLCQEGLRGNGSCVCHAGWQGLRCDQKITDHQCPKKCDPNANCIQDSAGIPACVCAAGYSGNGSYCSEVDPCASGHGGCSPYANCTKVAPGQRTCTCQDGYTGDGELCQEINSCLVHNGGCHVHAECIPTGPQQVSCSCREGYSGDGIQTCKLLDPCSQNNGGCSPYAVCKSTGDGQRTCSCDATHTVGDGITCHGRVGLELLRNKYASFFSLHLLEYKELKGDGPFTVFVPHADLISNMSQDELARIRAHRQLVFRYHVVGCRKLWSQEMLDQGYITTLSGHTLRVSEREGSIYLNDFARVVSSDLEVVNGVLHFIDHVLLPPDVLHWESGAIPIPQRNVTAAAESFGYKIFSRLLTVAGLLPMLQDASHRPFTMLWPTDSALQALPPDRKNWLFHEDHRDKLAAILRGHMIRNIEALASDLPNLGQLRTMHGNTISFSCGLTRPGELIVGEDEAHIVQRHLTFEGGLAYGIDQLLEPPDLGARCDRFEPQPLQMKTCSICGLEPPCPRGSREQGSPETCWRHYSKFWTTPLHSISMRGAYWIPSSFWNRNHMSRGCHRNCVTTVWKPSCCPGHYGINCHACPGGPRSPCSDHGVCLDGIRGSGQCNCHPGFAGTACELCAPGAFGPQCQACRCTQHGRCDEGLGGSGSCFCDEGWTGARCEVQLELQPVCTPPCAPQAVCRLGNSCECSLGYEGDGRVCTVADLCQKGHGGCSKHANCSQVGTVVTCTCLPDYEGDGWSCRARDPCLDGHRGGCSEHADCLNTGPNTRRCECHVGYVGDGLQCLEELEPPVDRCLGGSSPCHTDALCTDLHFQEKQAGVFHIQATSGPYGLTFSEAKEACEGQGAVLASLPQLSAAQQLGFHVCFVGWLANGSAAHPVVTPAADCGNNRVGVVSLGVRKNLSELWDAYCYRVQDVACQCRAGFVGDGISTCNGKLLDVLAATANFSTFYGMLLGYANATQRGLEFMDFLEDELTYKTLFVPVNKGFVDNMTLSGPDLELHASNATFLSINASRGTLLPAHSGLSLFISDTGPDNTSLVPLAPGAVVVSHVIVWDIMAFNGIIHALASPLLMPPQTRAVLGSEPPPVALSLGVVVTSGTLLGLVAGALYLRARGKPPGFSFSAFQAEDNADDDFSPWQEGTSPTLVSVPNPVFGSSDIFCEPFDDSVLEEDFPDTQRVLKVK

[2] = target: stabilin-2 scavenger receptor on liver sinusoidal endothelial cells (LSECs) (mouse, UniProt Q8R4U0 29-2559); experiment: cell-based or functional assay
Sequence of stabilin-2 scavenger receptor on liver sinusoidal endothelial cells (LSECs) (Q8R4U0 29-2559): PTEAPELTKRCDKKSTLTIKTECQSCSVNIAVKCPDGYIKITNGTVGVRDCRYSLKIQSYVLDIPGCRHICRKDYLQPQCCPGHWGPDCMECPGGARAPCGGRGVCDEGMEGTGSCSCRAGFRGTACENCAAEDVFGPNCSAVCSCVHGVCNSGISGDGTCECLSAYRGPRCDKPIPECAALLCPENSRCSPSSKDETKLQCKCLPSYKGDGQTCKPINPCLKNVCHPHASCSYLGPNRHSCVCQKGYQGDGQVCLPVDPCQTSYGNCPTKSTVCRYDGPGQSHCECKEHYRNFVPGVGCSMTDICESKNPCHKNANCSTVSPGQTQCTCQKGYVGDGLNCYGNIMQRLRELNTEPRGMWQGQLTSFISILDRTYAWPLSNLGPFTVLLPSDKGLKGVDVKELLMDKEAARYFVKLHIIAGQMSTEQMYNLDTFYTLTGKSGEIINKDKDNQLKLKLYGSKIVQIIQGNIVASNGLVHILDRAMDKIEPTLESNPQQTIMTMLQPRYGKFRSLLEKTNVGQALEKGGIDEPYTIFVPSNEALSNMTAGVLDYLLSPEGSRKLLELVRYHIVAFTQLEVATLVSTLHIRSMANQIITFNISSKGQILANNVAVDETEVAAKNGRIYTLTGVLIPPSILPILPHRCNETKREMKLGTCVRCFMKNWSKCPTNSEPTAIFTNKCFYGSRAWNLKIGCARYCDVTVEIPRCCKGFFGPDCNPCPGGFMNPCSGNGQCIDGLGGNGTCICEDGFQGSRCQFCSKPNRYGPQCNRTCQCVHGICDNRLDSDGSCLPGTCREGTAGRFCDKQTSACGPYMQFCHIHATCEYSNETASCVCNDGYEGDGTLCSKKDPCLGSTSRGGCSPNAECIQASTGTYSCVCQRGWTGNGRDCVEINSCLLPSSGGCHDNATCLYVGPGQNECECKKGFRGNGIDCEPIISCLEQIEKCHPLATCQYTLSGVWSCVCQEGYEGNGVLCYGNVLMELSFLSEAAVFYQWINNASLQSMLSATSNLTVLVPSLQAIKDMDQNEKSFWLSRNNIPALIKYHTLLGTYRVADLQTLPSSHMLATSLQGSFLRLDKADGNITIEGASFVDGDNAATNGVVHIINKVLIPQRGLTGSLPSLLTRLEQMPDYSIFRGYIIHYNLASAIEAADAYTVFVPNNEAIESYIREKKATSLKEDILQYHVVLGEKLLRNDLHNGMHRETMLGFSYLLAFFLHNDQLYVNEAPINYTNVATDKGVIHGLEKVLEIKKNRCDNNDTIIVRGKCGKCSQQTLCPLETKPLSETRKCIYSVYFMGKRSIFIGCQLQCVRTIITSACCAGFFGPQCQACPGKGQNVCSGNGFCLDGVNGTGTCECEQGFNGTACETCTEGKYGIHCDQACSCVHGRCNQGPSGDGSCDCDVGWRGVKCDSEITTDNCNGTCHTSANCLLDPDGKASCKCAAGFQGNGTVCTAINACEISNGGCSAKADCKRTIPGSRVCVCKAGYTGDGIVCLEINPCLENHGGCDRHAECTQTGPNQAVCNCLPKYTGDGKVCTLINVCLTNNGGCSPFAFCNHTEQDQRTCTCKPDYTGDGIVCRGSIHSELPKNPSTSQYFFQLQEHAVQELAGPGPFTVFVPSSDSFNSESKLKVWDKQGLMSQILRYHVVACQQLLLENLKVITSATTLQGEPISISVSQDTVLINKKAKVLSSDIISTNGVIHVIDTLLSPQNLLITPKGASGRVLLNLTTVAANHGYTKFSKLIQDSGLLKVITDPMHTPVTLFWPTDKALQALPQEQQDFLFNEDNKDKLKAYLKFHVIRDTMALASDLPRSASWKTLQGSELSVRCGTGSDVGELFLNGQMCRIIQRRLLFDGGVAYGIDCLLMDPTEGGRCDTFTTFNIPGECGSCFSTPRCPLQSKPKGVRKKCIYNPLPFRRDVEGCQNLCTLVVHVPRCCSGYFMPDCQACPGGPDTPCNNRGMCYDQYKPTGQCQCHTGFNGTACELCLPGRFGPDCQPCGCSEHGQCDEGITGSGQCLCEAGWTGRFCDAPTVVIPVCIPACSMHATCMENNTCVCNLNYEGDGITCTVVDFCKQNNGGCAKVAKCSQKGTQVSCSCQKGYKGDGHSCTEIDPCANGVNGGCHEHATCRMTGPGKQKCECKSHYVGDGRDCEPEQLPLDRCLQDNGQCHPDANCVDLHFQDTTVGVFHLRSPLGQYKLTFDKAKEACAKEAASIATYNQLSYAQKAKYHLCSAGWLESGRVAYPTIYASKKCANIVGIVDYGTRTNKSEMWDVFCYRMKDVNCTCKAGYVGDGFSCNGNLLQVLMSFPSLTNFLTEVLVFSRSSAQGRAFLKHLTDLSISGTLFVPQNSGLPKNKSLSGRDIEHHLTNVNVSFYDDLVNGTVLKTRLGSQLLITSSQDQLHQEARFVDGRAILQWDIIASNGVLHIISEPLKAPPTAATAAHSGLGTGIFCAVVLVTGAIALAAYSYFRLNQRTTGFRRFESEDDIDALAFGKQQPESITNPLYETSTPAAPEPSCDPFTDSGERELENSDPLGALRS

FITC-OVA: fluorescein isothiocyanate (FITC)-labeled OVA, not encapsulated
NP-mediated FITC-OVA uptake (OVA fluorescence intensity) (LSECs): No significant uptake

B1: non-encapsulated fluorescent OVA: DyLight680-labeled ovalbumin injected free, not encapsulated (protein, UniProt P01012 2-386, looked up)
Ovalbumin: GSIGAASMEFCFDVFKELKVHHANENIFYCPIAIMSALAMVYLGAKDSTRTQINKVVRFDKLPGFGDSIEAQCGTSVNVHSSLRDILNQITKPNDVYSFSLASRLYAEERYPILPEYLQCVKELYRGGLEPINFQTAADQARELINSWVESQTNGIIRNVLQPSSVDSQTAMVLVNAIVFKGLWEKAFKDEDTQAMPFRVTEQESKPVQMMYQIGLFRVASMASEKMKILELPFASGTMSMLVLLPDEVSGLEQLESIINFEKLTEWTSSNVMEERKIKVYLPRMKMEEKYNLTSVLMAMGITDVFSSSANLSGISSAESLKISQAVHAAHAEINEAGREVVGSAEAGVDAASVSEEFRADHPFLFCIKHIATNAVLFFGRCVSP
modifications: DyLight680 label
organ distribution of labeled OVA (IVIS) (mice): kidney

B2: ApoB peptide (ApoBP), RLYRKRGLK, containing a GGC tag, conjugated to the surface of OVA-encapsulating PLGA nanoparticles (peptide)
peptide: RLYRKRGLK
modifications: also: GGC tag at one end, orientation unclear, tag Cys thioether-linked to maleimide (NAEM) on PLGA nanoparticle
percentage of OVA-positive LSECs (flow cytometry, uptake of nanoparticle-encapsulated FITC-OVA) [1]: ~2 fold | percentage of OVA-positive LSECs (flow cytometry, uptake of nanoparticle-encapsulated FITC-OVA) [2]: ~2 fold
